The target in one test is T1, monkey CD3 (monkey).
T1 construct: whole, on cells; also called CD3 on monkey CD3 positive T cells
As to the kind of experiment: flow cytometry on monkey CD3 positive T cells.

In test [1] the target is T2, human CD3 (human, UniProt P07766 23-207).
T2 construct: whole, on cells; Assays used CD3 positive T cells (or CIK cells) from human blood; also called Human CD3ϵ; CD3 on human CD3 positive T cells
As to the kind of experiment: flow cytometry on human CD3 positive T cells.

In test [2] the target is T2, human CD3. As to the kind of experiment: cell-based or functional assay.
For another test, the target named is T3, Human CD38 (human, UniProt P28907 1-300).
T3 construct: whole, on cells; the assays used the protein on tumor cells
As to the kind of experiment: flow cytometry on CD38 positive tumor cells (MM.1S or RPMI 8226).

In test [3] the target is T2, human CD3. As to the kind of experiment: cell-based or functional assay. The source holds these as a separate data set.

This note sets out measurements from patent US20220041721A1 (WUHAN YZY BIOPHARMA, published 2022).

B1: Y150-F9-11 (bispecific antibody, human IgG1, kappa)
scFv: QVQLVESGGGVVQPGRSLRLSCAASGFTFSTYAMNWVRQAPGKGLEWVARIRSKYNNYATYYADSVKDRFTISRDDSKNTLYLQMNSLRAEDTAVYYCARHGNFGNSYVSWFAYWGQGTLVTVSSGGGGSGGGGSGGGGSQTVVTQEPSLTVSPGGTVTLTCRSSTGAVTTSNYANWVQQKPGQAPRGLIGGTNKRAPGVPARFSGSLLGGKAALTLSGVQPEDEAEYYCALWYSNLWVFGGGTKVEIKGRGRGSDKTHTCPPSPAPPVAGPSVFLFPPKPKDTLMISRTPEVTCVVVDVSHEDPEVQFNWYVDGVEVHNAKTKPREEQFNSTFRVVSVLTVVHQDWLNGKEYKCKVSNKGLPAPIEKTISKTKGQPREPQVCTLPPSRDELTKNQVSLSCAVKGFYPSDIAVEWESNGQPENNYKTTPPVLDSDGSFFLVSKLTVDKSRWQQGNVFSCSVMHEALHNHYTQKSLSLSPGK
heavy: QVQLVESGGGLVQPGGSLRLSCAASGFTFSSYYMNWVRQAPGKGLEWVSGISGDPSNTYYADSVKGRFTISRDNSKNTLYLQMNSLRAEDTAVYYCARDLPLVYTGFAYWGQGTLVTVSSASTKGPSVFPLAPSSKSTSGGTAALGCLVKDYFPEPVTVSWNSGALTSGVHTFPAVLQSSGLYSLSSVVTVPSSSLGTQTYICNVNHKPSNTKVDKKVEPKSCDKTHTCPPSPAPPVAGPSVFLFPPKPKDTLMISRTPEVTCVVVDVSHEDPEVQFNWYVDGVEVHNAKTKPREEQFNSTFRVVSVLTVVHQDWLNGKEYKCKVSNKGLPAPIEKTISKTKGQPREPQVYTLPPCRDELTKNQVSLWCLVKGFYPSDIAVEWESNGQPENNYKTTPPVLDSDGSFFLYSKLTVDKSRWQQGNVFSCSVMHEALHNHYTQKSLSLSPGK
light: DIELTQPPSVSVAPGQTARISCSGDNLRHYYVYWYQQKPGQAPVLVIYGDSKRPSGIPERFSGSNSGNTATLTISGTQAEDEADYYCQTYTGGASLVFGGGTKLTVLRTVAAPSVFIFPPSDEQLKSGTASVVCLLNNFYPREAKVQWKVDNALQSGNSQESVTEQDSKDSTYSLSSTLTLSKADYEKHKVYACEVTHQGLSSPVTKSFNRGEC
notes: Anti-CD38 (MOR) Fab arm with CL Lc1 and anti-CD3 scFv (VH2a/VL5)-Fc fusion peptide
As for B1, the results for the EC50 in the test with monkey CD3, with human CD3 [1] and in the test with Human CD38 were 461 nM, 437 nM and 106 nM, respectively. The “EC50 values of T-cell activation (CD3 and CD69 dual positive cells; human PBMC with MC/CAR target cells 5:1, 48 h)” value in the test with human CD3 [2] came to 0.0835 nM.

B2: MS-hCD3-IC15 (bispecific antibody, human IgG1, kappa, N297Q)
scFv: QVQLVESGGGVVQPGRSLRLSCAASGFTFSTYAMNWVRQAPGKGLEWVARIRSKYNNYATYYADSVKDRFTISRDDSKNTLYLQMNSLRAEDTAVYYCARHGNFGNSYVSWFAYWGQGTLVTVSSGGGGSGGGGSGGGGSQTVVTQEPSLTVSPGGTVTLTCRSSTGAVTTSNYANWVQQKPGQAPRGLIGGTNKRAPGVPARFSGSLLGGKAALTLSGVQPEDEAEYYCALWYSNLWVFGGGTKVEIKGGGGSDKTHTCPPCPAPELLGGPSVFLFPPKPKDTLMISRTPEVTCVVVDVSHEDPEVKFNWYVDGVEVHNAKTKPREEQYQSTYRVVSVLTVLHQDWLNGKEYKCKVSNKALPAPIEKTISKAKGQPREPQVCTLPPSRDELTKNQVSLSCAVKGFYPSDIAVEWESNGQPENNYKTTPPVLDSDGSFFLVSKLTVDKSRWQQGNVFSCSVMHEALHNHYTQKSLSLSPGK
heavy: EVKLDETGGGLVQPGRPMKLSCVASGFTFSDYWMNWVRQSPEKGLEWVAQIRNKPYNYETYYSDSVKGRFTISRDDSKSSVYLQMNNLRVEDMGIYYCTGSYYGMDYWGQGTSVTVSSASTKGPSVFPLAPSSKSTSGGTAALGCLVKDYFPEPVTVSWNSGALTSGVHTFPAVLQSSGLYSLSSVVTVPSSSLGTQTYICNVNHKPSNTKVDKKVEPKSCDKTHTCPPCPAPELLGGPSVFLFPPKPKDTLMISRTPEVTCVVVDVSHEDPEVKFNWYVDGVEVHNAKTKPREEQYQSTYRVVSVLTVLHQDWLNGKEYKCKVSNKALPAPIEKTISKAKGQPREPQVYTLPPCRDELTKNQVSLWCLVKGFYPSDIAVEWESNGQPENNYKTTPPVLDSDGSFFLYSKLTVDKSRWQQGNVFSCSVMHEALHNHYTQKSLSLSPGK
light: DVVMTQTPLSLPVSLGDQASISCRSSQSLVHSNGNTYLRWYLQKPGQSPKVLIYKVSNRFSGVPDRFSGSGSGTDFTLKISRVEAEDLGVYFCSQSTHVPWTFGGGTKLEIKRTVAAPSVFIFPPSDEQLKSGTASVVCLLNNFYPREAKVQWKVDNALQSGNSQESVTEQDSKDSTYSLSSTLTLSKADYEKHKVYACEVTHQGLSSPVTKSFNRGEC
Turning to B2, the EC50 in the test with monkey CD3 is 378 nM; in the test with human CD3 [1], 194 nM. In the test with human CD3 [3], the “Cytotoxicity EC50 against lung cancer cells H358 (human PBMC 10:1, 48 h); control with CD3 arm only, no tumor antigen arm” value turned out to be 0.172 µg/mL.
